Substrate: Nc1ncnc2c1ncn2[C@@H]1O[C@H](COP(=O)(O)OP(=O)(O)OP(=O)(O)O)[C@@H](O)[C@H]1O
Test: adenylyl cyclase assay, cAMP by LC-MS/MS
Assay type: biochemical, Brachypodium distachyon

B1: BdGUCD1 (Brachypodium distachyon) (protein)
chain: MVLRTLGVDCCDGIADLGKLCHTTSIWTVDLAYLLHKFRVSFSFFTVTIGANPQYSAETFYREQLQEDIDRVDELFGKAVDAGISIQCRSISAYDIAFLLLSGHCIAIALVDKSKLISSWMNDVHDVQQFNEDSDYMGHYVVICGYDADACEFEIRDPASSRKREMVPMKSLEEARKSFGTDEDILLVSLTGKNGMKLSRKLPDSSL
notes: truncated fragment Met62-Leu268 (207 residues; full length 268 aa), N-terminal GST fusion kept (pGEX-6P-2), ~55 kDa, from E. coli BL21(DE3)pLysS
Km: 320 µM
